Source: a protein production outcome set (Wang et al. 2014)

test: label from the status in PepcDB records
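Note: failed if final PepcDB status was selected cloned or expressed and not failed if soluble or beyond.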

Sequence	protein production
MANFIEKITYLGTPAIKAGNEHLEMIVVPEWGSNVISLVDKTTNVQLLREPETAESFHDTPTLYGIPILFPPNRISDGTFSFRGRTYHFDINEKDKHNHLHGFLYHEKWNVVTTKQTDEGVIVETEIDLSELPHVQKQFPHHAVVRMTYTIKENTLFKHATVMNKGKEAFPWGIGYHTTFIFPAESSLFSLTADQQWELDERLLPTGKLMDVPYKEALHEGMDLRHKQLDDVFLSSYQKRGGENQAVIYHQHAHISIIYKADEQFKHWVVYNADGKQGYLCPEPYTWVTNAVNLDLPSSLTGLQVLEPGEETTAKSSITIELNHQ	not failed
MANIDLHFHSRTSDGALTPTEVIDRAAARAPALLALTDHDCTGGLAEAAAAAARRGIPFLNGVEVSVSWGRHTVHIVGLGIDPAEPALAAGLKSIREGRLERARQMGASLEAAGIAGCFDGAMRWCDNPEMISRTHFARHLVDSGAVKDMRTVFRKYLTPGKPGYVSHQWASLEDAVGWIVGAGGMAVIAHPGRYDMGRTLIERLILDFQAAGGQGIEVASGSHSLDDMHKFALHADRHGLYASSGSDFHAPGEGGRDVGHTEDLPPICRPIWRELEARILRP	failed
MANIFIENSLLFALTQIVPLLYIVTTALYGIHFFKETPLAGSLKQPALILTVVTHVADLGLLTSTAGYRLSYSAYNLMSMVALTLAITYMFIEFTTKSDKTGFFVIAFAAGSALFSSILSSQTVDSGLAFSGLGIGVHLFAAIFGFSSVAIAGLYSGMYLVLFRQIRLNRFGLLFQRLPNLETLEMLIMHAVAFGFFFLSVTIVAGVLEQHASKEVINLFEPRLVSLFVIWALYGISLVIKPLFGWDIKHMAVLLIALFVLVTALLFIMSLVTPSFHGMSI	failed
MANISLKQGQFVTNSLPNKWKFRNLTKILLRRRFIVLGVSCMVISATSFTAITNKPTYKSQMQILVSPNVSEEVGITNNNIDIPISIEQYSVQKNLMQSSKLIDKVVNLLSFDYPNITKENILGKTENSENSPLKVTQLETNKGAKQVLSPVFEISFQDNDPLKTKKVLLALQKVYQDYNLERRQERFNQGLAFINARLPVIKQQLRQAERKLEQFRKKHNLLDPELQSQVLIKSLTKTQEQLQLTRTQLQDINSRYQNLEERITEASQKALVSMRLAQSSRYKTLTSELQKTEQSLAKEQLRYTDDSPIVQSLKQQRRSQLTLVRQELKRLTAELKTQTTPEPEQLVGVDPNLVEEFVQVQTTALGLIANEKSLRESEQRIRSELSKYPSLIAEYQRLLPEVETQRKTLEQMLQAQQSMGMKIAHGGFDWLVLEEANLGTYVGNDRFWLVFVGMITGPILGVVLALIWGMRHRIIHSAQDLQKVSNLRLLGTVPKLAPRTMEKRLPNLSWLGGRNLTESEEVGNSWLPCHETLDMVYQNTQILKYPFPFKSMMVTSALPGEGRTTLAMGLAASAAHMHRRVLLIDANLRSPKLHKILQLSNDWGLSLLLLDETNTEVQDYIQPIHPSIDILTAGPTPEDAVELLSSQRLKDLIELFEETYDLVLIDAPPILGTVDGRIVASYCHGIMMVGRIGWVTQTELTQAVEILNSLNLVGIIANDMSSYHKG	failed
MANKQVFPTKGNLIATKKSNALAHMGYELMDRKRNILIREMMGLLDDVKLLRDEITQTYAEAYRALQLANMSLGVISAMAEAVPIDTGLHVSYRSVMGVEIPKLSYDKQEIKPTYGLERANSKLDYAYTCFQRVKEMSVVLAEVENNVYRLANAIRKSQKRANALKNIVIPEFEHNIKFITDALEEKEREEFSRQKVIKRNKDSQMQMERK	failed
MANKTIAQTGSATSPTTNKSGTYVEVPLQDTIPIIFVPGIMGSNIFNTVLGKPVWMIGNGISGQVKTLTKQMGKTPAELQTELDPLNTRVDTSGDIKVDRRLKLTEKTLRERYWGTVHWDSYGGILTYLQMVLNNVDLNEKPIYTTGLGGGYAAVQQMKQQEAVYEWKSLLNQTESSKWFPQQSFVPINQQEIEHLKKFHFPVYAMGYNWLQSSENGAALVAQKLDKIKQEYGARFHKFIIVTHSMGGLLTRRLVQLCSADIAGVV	failed
MANNARIEHTSSEGHEGDATCVAYFDGQLFSGGADGKIRIWSPELQLLATVNAHEAYIYCMAINQHGKVYSSSCDGQVHFMLPPYGDESVQELFRCDDAIQAMYCDGSVLYTGDDKGVVTTWTNDRMLFKYSLVEEVKSLAGEQNLIYTVRDLDVVVSQVAEGKSGKYSNKAVIPGKSPLHLLGPMVDGKRSYLAFPDRSGMGLQLVNNLSQQQYSKIWHLPDCHELIINALCGDETYLYSGGYDKKVKGWTDLEAGKPKALGEVEVGSCVNSICCGANDTVYIASSDGFIRSAKFV	failed
MANQTVERQSWSNRLAYIMTVAGATVGFGATWRFPYLVGENGGGAYVFLFCIAMIVIGIPMILVENVIGRRMKVNAIDAFSGQANGKKIASGWKILGYMGLLGAFGILSYYMVLGGWVLNYIGSLISGNLDLSSPITVETTTAYYQNSIQNSPITILCYAALFVLINFFILTKGIVDGIERSVKYLMPILFIFLLVMVVRNVTLPGATDGISFYLMPDFSKITPKLFVFVLGQVFFALSLGFGVLITLSSYLDKNENLIKTATITGIMNTFIAVLAGFMIFPSLFSFGVAPNSGPTLVFQSLPIVFSNMWGGTIFAIIFFSLLIVAALTTSLTIYEVIITALQEKTKISRKTAIGITLSSTFLIGNIPSVLGDNIWKDVTIMGKSIFDVFDYISGNILFILTALGSAIFVGYVLKDEAKAELGANKTLTTIWFNYVRFVIPIIIIVIFFNSL	failed
MANSIDLIGYVHQPVQFDSTLDGKFWAGTVISHEPSSDSKSESDSSSNFWIPVLFEGDLAHTANSYLKKNDRVHITGQILGDVIQSGANSDQAHVQLFKSFHGSFSHQVMVRD	failed
MANTSSDWAGAPQNASADGEFVRDTNYIDDRIVADVPAGSEPIAQEDGTFHWPVEAGRYRLVAARACPWAHRTVITRRLLGLENVISLGLTGPTHDVRSWTFDLDPNHLDPVLQIPRLQDAYFNRFPDYPRGITVPALVEESSKKVVTNDYPSITIDFNLEWKQFHREGAPNLYPAELREEMAPVMKRIFTEVNNGVYRTGFAGSQEAHNEAYKRLWVALDWLEDRLSTRRYLMGDHITEADIRLYPTLVRFDAVYHGHFKCGRNKITEMPNLWGYLRDLFQTPGFGDTTDFTEIKQHYYITHAEINPTRIVPVGPDLSGFATPHGREKLGGSPFAEGVTLPGPIPAGEEVKNPEPFQK	not failed
MANVVILGGNGYLGRNITKVWLEIDPKLEFYIVSRSGQNKLVDKRIHNIKVDVTNEKDVAKKRPDTFDYIIDCIGVPEKDPEKFKQINDLPAETMLALARKQKDPVMGFISGRLGPKTFIDGKAQILKELQDSSIKVASVSPNVVYGNGRKDSMTKMVPFLKFMDLFSAKMNPDDVVKDLINQMIKLHNS	failed
MANYPKELPAQTQSRQPGIESEMNPSPVYEYEDYKGADKLKGKVALITGGDSGIGRAVSVAYAKEGADIAIVYKDEHEDAEETKKRVEQEGVKCLLIAGDVGEEEFCNEAVEKTVKELGGLDILVNNAGEQHPKESIKDITSEQLHRTFKTNFYSQFYLTKKAIDYLKPGSAIINTTSINPYVGNPTLIDYTATKGAINAFTRTMAQALVKDGIRVNAVAPGPIWTPLIPATFPEETVAQFGQDTPMGRPGQPVEHVGCYVLLASD	not failed
MAPACTTVHRRRAPLAAVLMLSLLPVLSPHADAAQVPWHSRTFKYVADNKDLKEVLRDLSASQSIATWISPEVTGTLSGKFETSPQKFLDDLAATYGFVWYYDGAVLRIWGANESKSATLSLGTASTKSLRDALARMRLDDPRFPVRYDETAHVAVVSGPPGYVDTVSAIAKQVEQGARQRDATEVQVFQLHYAQAADHTTRIGGQDVQIPGMASLLRSMYGARGAPVAAIPGPGANFGRVQPIGGGSSNTFGNAAQGQGGGASGILGLPSSWFGGASSSDRVPVSPPLPGSGTAATAGSPASVWPELSKGRRDESTPIDAGGGAELASDAPVIEADPRTNTILIRDRPERMQSYGTLIQQLDNRPKLLQIDATIIEIRDGAMQDLGVDWRFHSQHTDIQTGNGSGGQLGFNGALSGAATDGATTPAGGTLTAVLGDAGRYLMTRVSALETTNKAKIVSSPQVATLDNVEAVMDHKQQAFVRVSGYASADLYNLSAGVSLRVLPSVVPGSPNGQMRLDVRIEDGQLGSNTVDGIPVITSSEITTQAFVNEGQSLLIAGYAYDADETDLNAVPGLSKIPLLGNLFKHRQKSGSRMQRLFLLTPHVVSP	failed
MAPDQQVPATALGKSSRISLDGRRSERSVILADGSMHSLTLLHPGVYTLSSEVAETIRVLSGMAYYHAEGANDVQELHAGDSMVIPANQSYRLEVMEPLDYLLSS	not failed
